Tests used:
Format in all cases: cell-based
[1] = tested on: Jurkat cells; experiment: Anti-phosphotyrosine capture assay of tyrosine kinase activity after SDF-1α stimulation for various times; conditions: 37° C., 100 nM SDF-1α, various time intervals, FIG. 2
Experimental: (§1) 96-well polystyrene plates were coated with an anti-phosphotyrosine antibody, pY99 (Santa Cruz Biotech, Inc., Santa Cruz, Calif.), by adding 200 μl of an antibody solution in Tris buffered saline (TBS) pH 8.0 at a concentration of 2.5 μg/ml. The plates were incubated for three hours at room temperature. The plates were then rinsed and 300 μl of blocking solution, sold under the trademark, SUIPERBLOCK® (Pierce Chemical, Rockford, Ill.) was added and the plates were incubated for two hours. At this point, the plates may be stored at 4° C. for up to two weeks. […]
To assay the cell lysates for kinase activity, the plate was thawed at 37° C., and 100 μl of tris buffered saline with 0.1% Tween 20 was added to each well. […] Relative phosphorylated protein levels were detected by adding 100 μl of a 0.2 μg/ml solution of europium-chelate labeled anti-phosphotyrosine antibody in tris buffered saline (pH 8.0) to each well and allowing the plate to incubate for one hour with shaking. […] Enhancement Solution for measuring Eu^3+ (E. G. & G. Wallac, Turku, FI) was added and the amount of labeled antibody bound was measured using a time-resolved fluorescence plate reader, for example, a Wallac 1420, or Victor MLC (Wallac Oy, Turku, FI). […]

[2] = tested on: Ramos B cells; experiment: Anti-phosphotyrosine capture assay (time-resolved fluorescence) of tyrosine phosphorylation in stimulated B-cells; conditions: ligand 100 ng/ml, 15 minutes, FIG. 1
Experimental: as §1
(§2) To assay the cell lysates for kinase activity, the plate was thawed at 37° C., and 100 μl of tris buffered saline with 0.1% Tween 20 was added to each well. […] Relative phosphorylated protein levels were detected by adding 100 μl of a 0.2 μg/ml solution of europium-chelate labeled anti-phosphotyrosine antibody in tris buffered saline (pH 8.0) to each well and allowing the plate to incubate for one hour with shaking. […] Enhancement Solution for measuring Eu^3+ (E. G. & G. Wallac, Turku, FI) was added and the amount of labeled antibody bound was measured using a time-resolved fluorescence plate reader, for example, a Wallac 1420, or Victor MLC (Wallac Oy, Turku, FI).

[3] = tested on: Daudi B cells; experiment: as above; conditions: ligand 100 ng/ml, 15 minutes, FIG. 1
Experimental: as §1, §2

SDF-1α
tyrosine kinase activity (fluorescence) as time increases [1]: decrease in kinase activity

B1: IL-4: IL-4, used as a stimulus for Daudi or Ramos B-cells (protein, UniProt P05112 25-153, looked up)
Interleukin-4: HKCDITLQEIIKTLNSLTEQKTLCTELTVTDIFAASKNTTEKETFCRAATVLRQFYSHHEKDTRCLGATAQQFHRHKQLIRFLKRLDRNLWGLAGLNSCPVKEANQSTLENFLERLKTIMREKYSKCSS
changes in tyrosine phosphorylation on stimulation [2]: not significantly | changes in tyrosine phosphorylation on stimulation [3]: not significantly

From patent publication US6806056B2, “Fluorescent capture assay for kinase activity employing an anti-phosphotyrosine antibody as both the capture agent and detecting agent” (Pharmacopeia Drug Discovery, Inc., priority 1999, dated 2004)
